“And” between values parts separate entries of the source, which are not always exact repeats. Identical values can stand only once. Where no end group is shown, it is not given here. [ ]: non-standard residue; d: D form. Met(O) = CS(=O)CC[C@H](N)C(=O)O
How the values were obtained:
[1] = Peptide assay and peptide impurities by RP-HPLC; assay type: physicochemical; conditions: for Peptide Impurities by RP-HPLC (% Area) / Peptide Content by RP-HPLC: compositions from sized lipid vesicle particles
Method: Identification and quantification of peptides was performed using a reversed-phase HPLC (RP-HPLC) method. The method utilizes an Agilent 1100 Series HPLC system equipped with a Phenomenex Luna 5 μm C8(2) column. The mobile phase is a gradient of 16-37% (v/v) acetonitrile in 0.1% (v/v) aqueous trifluoroacetic acid. Column temperature is maintained at 50° C., and UV-PDA detection is performed at 215 nm. The assay may also be used to identify peptide impurities. The tests were validated to the extent required for a phase 1/2 clinical phase study (data not included).

[2] = Lipid assay and degradant limit test by RP-HPLC; conditions: for Lipid Impurities (HPLC) / Lipid Impurities (RP-HPLC): % of DOPC area; for Lipid Impurities (RP-HPLC): solubilized Batch #4 in vials, room temperature
[3] = sized-vesicle preparation stored at 5° C. ± 3° C., 0 months
[4] = sized-vesicle preparation stored at 5° C. ± 3° C., 3 months
[5] = sized-vesicle preparation stored at 5° C. ± 3° C., 6 months
[6] = sized-vesicle preparation stored at 5° C. ± 3° C., 9 months
[7] = sized-vesicle preparation stored at 5° C. ± 3° C., 12 months
[8] = sized-vesicle preparation stored at 5° C. ± 3° C., 18 months
[9] = sized-vesicle preparation stored at −20° C. ± 5° C., 0 months
[10] = sized-vesicle preparation stored at −20° C. ± 5° C., 6 months
[11] = sized-vesicle preparation stored at −20° C. ± 5° C., 12 months
[12] = sized-vesicle preparation stored at −20° C. ± 5° C., 18 months
[13] = solubilized Batch #4 in syringe, t = 60 min
[14] = compositions from sized lipid vesicle particles, Average (n = 5)
[15] = compositions from sized lipid vesicle particles, individual Vial 1-5

Compound | Peptide Content by RP-HPLC ([1]; Average (n = 5)) [mg/mL] | Peptide Content by RP-HPLC ([1]; individual Vial 1-5) | Peptide Assay (RP-HPLC) [1, 3] [mg/mL] | Peptide Assay (RP-HPLC) [1, 4] [mg/mL] | Peptide Assay (RP-HPLC) [1, 5] [mg/mL] | Peptide Assay (RP-HPLC) [1, 6] [mg/mL] | Peptide Assay (RP-HPLC) [1, 7] [mg/mL] | Peptide Assay (RP-HPLC) [1, 8] [mg/mL] | Peptide Assay (RP-HPLC) [1, 9] [mg/mL] | Peptide Assay (RP-HPLC) [1, 10] [mg/mL] | Peptide Assay (RP-HPLC) [1, 11] [mg/mL] | Peptide Assay (RP-HPLC) [1, 12] [mg/mL] | other results
RRT 3.66 LMLGEFLKL (M oxidized to sulfoxide; SEQ ID NO: 2): peptide impurity: LMLGEFLKL with M oxidized to sulfoxide (L[Met(O)]LGEFLKL) |  |  |  |  |  |  |  |  |  |  |  |  | Peptide Impurities by RP-HPLC (% Area) ([1]; Average (n = 5)): 0.55%; Peptide Impurities by RP-HPLC (% Area) ([1]; individual Vial 1-5): 0.65% and 0.40% and 0.53% and 0.58% and 0.57%
LMLGEFLKL (Survivin HLA-A2 (modified)) [SurA2.M, survivin peptide antigen [HLA-A2]] | 1.14 | 1.11 mg/mL and 1.14 mg/mL (2×) and 1.15 mg/mL and 1.18 mg/mL | 0.95 | 0.91 | 0.91 | 0.89 | 0.88 | 0.91 | 0.95 | 0.92 | 0.89 | 0.91 | 
CCCCCCCC/C=C\CCCCCCCC(=O)O[C@H](COC(=O)CCCCCCCCCCCCCCC)COP(=O)([O-])OCC[N+](C)(C)C [POPC] |  |  |  |  |  |  |  |  |  |  |  |  | Lipid Impurities (HPLC) ([2]; solubilized Batch #4 in syringe, t = 0): 2.10%; Lipid Impurities (HPLC) ([2]; solubilized Batch #4 in syringe, t = 30 min): 2.91%; Lipid Impurities (HPLC) [2, 13]: 2.94%; Lipid Impurities (RP-HPLC) ([2]; t = 0): 2.65%; Lipid Impurities (RP-HPLC) ([2]; t = 4 h): 1.21%; Lipid Impurities (RP-HPLC) ([2]; t = 24 h): 1.04%; Lipid Impurities (% Area) [2, 14]: 2.65%; Lipid Impurities (% Area) [2, 15]: 2.79% and 2.62% and 2.63% and 2.61% and 2.59%
RISTFKNWPK (Survivin HLA-A3 (modified)) [SurA3.K, survivin peptide antigen [HLA-A3], added after sizing] | 0.89 | 0.86 mg/mL and 0.90 mg/mL and 0.91 mg/mL and 0.88 mg/mL and 0.92 mg/mL | 1.04 | 0.99 | 0.93 | 0.92 | 0.93 | 1.02 | 1.04 | 0.98 | 0.97 | 1.02 | loss in content from the nominal target limit in the final bulk ([1]; peptide combined with lipid mixture before size extrusion (retained by extruder membrane)): approximately 25%
CC(C)CCC[C@@H](C)[C@H]1CC[C@H]2[C@@H]3CC=C4C[C@@H](O)CC[C@]4(C)[C@H]3CC[C@]12C [Cholesterol, cholesterol] |  |  |  |  |  |  |  |  |  |  |  |  | Lipid Content by RP-HPLC [2, 14]: 11.36 mg/mL; Lipid Content by RP-HPLC [2, 15]: 11.20 mg/mL and 11.62 mg/mL and 11.48 mg/mL and 11.44 mg/mL and 11.05 mg/mL; Lipid Assay (RP-HPLC) [2, 3]: 11.03 mg/mL; Lipid Assay (RP-HPLC) [2, 4]: 11.30 mg/mL; Lipid Assay (RP-HPLC) [2, 5]: 12.26 mg/mL; Lipid Assay (RP-HPLC) [2, 6]: 12.11 mg/mL; Lipid Assay (RP-HPLC) [2, 7]: 12.00 mg/mL; Lipid Assay (RP-HPLC) [2, 8]: 12.25 mg/mL; Lipid Assay (RP-HPLC) [2, 9]: 11.03 mg/mL; Lipid Assay (RP-HPLC) [2, 10]: 12.14 mg/mL; Lipid Assay (RP-HPLC) [2, 11]: 11.10 mg/mL; Lipid Assay (RP-HPLC) [2, 12]: 12.85 mg/mL
STFKNWPFL (Survivin HLA-A24) [SurA24, survivin peptide antigen [HLA-A24]] | 0.93 | 0.92 mg/mL and 0.94 mg/mL and 0.93 mg/mL and 0.91 mg/mL and 0.95 mg/mL | 1.00 | 0.98 | 0.98 | 0.95 | 0.95 | 0.99 | 1.00 | 0.99 | 0.97 | 1.00 | 
CCCCCCCC/C=C\CCCCCCCC(=O)O [Oleic Acid, oleic acid] |  |  |  |  |  |  |  |  |  |  |  |  | DOPC degradants by RP-HPLC [2, 15]: 0.60 mg/mL and 0.50 mg/mL; Lipid Degradants (RP-HPLC) [2, 3]: 0.3 mg/mL; Lipid Degradants (RP-HPLC) [2, 4]: 0.2 mg/mL; Lipid Degradants (RP-HPLC) [2, 5]: 0.2 mg/mL; Lipid Degradants (RP-HPLC) [2, 6]: 0.4 mg/mL; Lipid Degradants (RP-HPLC) [2, 7]: 0.2 mg/mL; Lipid Degradants (RP-HPLC) [2, 8]: 0.2 mg/mL; Lipid Degradants (RP-HPLC) [2, 9]: 0.3 mg/mL; Lipid Degradants (RP-HPLC) [2, 10]: 0.3 mg/mL; Lipid Degradants (RP-HPLC) [2, 11]: 0.2 mg/mL; Lipid Degradants (RP-HPLC) [2, 12]: 0.3 mg/mL; DOPC degradants by RP-HPLC [2, 13]: 0.60 mg/mL
FTELTLGEF (Survivin HLA-A1 (modified)) [SurA1.T, survivin peptide antigen [HLA-A1]] | 1.09 | 1.07 mg/mL (2×) and 1.10 mg/mL and 1.09 mg/mL and 1.11 mg/mL | 1.03 | 1.02 | 1.03 | 1.02 | 0.97 | 1.07 | 1.03 | 1.04 | 0.99 | 1.04 | 
LPPAWQPFL (Survivin HLA-B7) [SurB7, survivin peptide antigen [HLA-B7]] | 1.09 | 1.07 mg/mL (2×) and 1.11 mg/mL (2×) and 1.08 mg/mL | 1.09 | 1.01 | 1.00 | 1.00 | 0.99 | 1.03 | 1.09 | 1.01 | 1.01 | 1.03 | 
CCCCCCCC/C=C\CCCCCCCC(=O)OC[C@H](COP(=O)([O-])OCC[N+](C)(C)C)OC(=O)CCCCCCC/C=C\CCCCCCCC [DOPC, 1,2-Dioleoyl-sn-glycero-3-phosphocholine] |  |  |  |  |  |  |  |  |  |  |  |  | Lipid Content by RP-HPLC [2, 14]: 119.03 mg/mL; Lipid Content by RP-HPLC [2, 15]: 117.39 mg/mL and 121.44 mg/mL and 120.26 mg/mL and 120.00 mg/mL and 116.07 mg/mL; Lipid Assay (RP-HPLC) [2, 3]: 118.41 mg/mL; Lipid Assay (RP-HPLC) [2, 4]: 112.91 mg/mL; Lipid Assay (RP-HPLC) [2, 5]: 124.60 mg/mL; Lipid Assay (RP-HPLC) [2, 6]: 130.11 mg/mL; Lipid Assay (RP-HPLC) [2, 7]: 120.00 mg/mL; Lipid Assay (RP-HPLC) [2, 8]: 121.35 mg/mL; Lipid Assay (RP-HPLC) [2, 9]: 118.41 mg/mL; Lipid Assay (RP-HPLC) [2, 10]: 123.60 mg/mL; Lipid Assay (RP-HPLC) [2, 11]: 102.63 mg/mL; Lipid Assay (RP-HPLC) [2, 12]: 128.00 mg/mL

Reference: patent publication US20200353062A1, “PHARMACEUTICAL COMPOSITIONS, METHODS FOR PREPARATION COMPRISING SIZING OF LIPID VESICLE PARTICLES, AND USES THEREOF” (IMMUNOVACCINE TECHNOLOGIES INC., priority 2017, published 2020)
